Measurements published in US20020197647A1.

Target: full-length c-Jun (Rattus norvegicus (Rat)) (UniProt P17325)
Test: cell-based or functional assay

Q: What does the source list for “wild-type Stat3 (transfected, expression vector pRcCMV) (from UniProt P42227 1-770)”?
A: IL-6 dependent response of the α2-macroglobulin luciferase reporter gene in HepG2 cells (fold): 30 fold; IL-6 response of the α2-macroglobulin luciferase reporter gene in HepG2 cells with increasing Stat3 and extra c-Jun (fold above background): 4
